Reference: paper PMC4707092
Several values for one entry are separate records, joined by “and”; a condition that tells them apart may be missing. Identical values can stand only once. Like-named read-outs stand apart in the source and are kept apart here. Blank lines part the entries; values can stand above or below the substance they belong to.

Tests used:
C3b = C3b (UniProt P01024); experiment: SPR
C3b C3b (Homo sapiens) [1] = molecular target: C3b C3b (Homo sapiens) (UniProt P01024); settings: cited from earlier work
C3b C3b (Homo sapiens) [2] = molecular target: C3b C3b (Homo sapiens) (UniProt P01024); settings: cited from earlier work; remark: listed apart in the source

Sequence of C3b C3b (Homo sapiens) (P01024 566-670): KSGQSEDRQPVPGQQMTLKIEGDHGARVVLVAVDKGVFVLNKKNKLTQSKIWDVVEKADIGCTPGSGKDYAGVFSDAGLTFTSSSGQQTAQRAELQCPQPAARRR

KD1 (1:2 binding model, first of two independent sites) (C3b): 1.7 µM
KD2 (1:2 binding model, second of two independent sites) (C3b): 5.6 µM
Substance: FHΔ10–15

Kd (C3b): 0.647 µM
Substance: Factor H (from UniProt P08603 19-1231) (natural protein)

Second part, the substance before the results:

Substance: Factor H CCPs 1-4 (from UniProt P08603)
Kd (C3b C3b (Homo sapiens) [1]): 11 µM and 14 µM

Substance: Factor H CCPs 19-20 (from UniProt P08603)
Kd (C3b C3b (Homo sapiens) [2]): 5.4 µM and 4 µM

Substance: Factor H-like protein 1 (natural protein)
Kd (C3b): 1.52 µM
